We go through 1 substance from publication PMC9788759.

The test concerns the target reconstituted 26S proteasome with LD555 donor dye on Rpn9 (F2AzF) and LD655 acceptor dye on Rpt5 (Q49AzF), wild type (yeast | not stated | yeast (endogenous gene tagged in strain W303) | yeast (endogenous in W303)) (UniProt P33299).
UniProt P33299, sequence (P33299 whole entry, looked up): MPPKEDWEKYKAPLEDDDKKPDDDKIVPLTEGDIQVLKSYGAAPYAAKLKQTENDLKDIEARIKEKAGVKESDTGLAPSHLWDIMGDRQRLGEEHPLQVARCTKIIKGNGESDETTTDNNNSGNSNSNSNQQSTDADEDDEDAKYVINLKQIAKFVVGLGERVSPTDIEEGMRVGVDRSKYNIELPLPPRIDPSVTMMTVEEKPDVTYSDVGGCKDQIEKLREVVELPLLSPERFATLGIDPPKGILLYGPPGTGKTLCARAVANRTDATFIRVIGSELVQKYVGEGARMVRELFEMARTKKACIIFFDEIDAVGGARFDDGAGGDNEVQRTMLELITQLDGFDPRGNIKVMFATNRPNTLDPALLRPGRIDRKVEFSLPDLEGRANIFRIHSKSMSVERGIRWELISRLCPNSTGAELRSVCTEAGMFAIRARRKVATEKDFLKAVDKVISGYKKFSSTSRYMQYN

Turning to “unanchored K48-linked ubiquitin tetramer (from UniProt P0CG63 1-76)”, the rate of the s1-to-non-s1 transition (ks1) of the substrate-free proteasome in the single-molecule FRET conformational dynamics assay; 1.2 s^-1 without chains turned out to be 0.4 s⁻¹.
